Values quoted from earlier work, collected in article PMC2712931.
pKd: −log10 of the molar value.

Molecular target: Pex5 (UniProt P50542)

## Pex14 (from UniProt O75381)
  pKd: 5.56
